Measurements published in patent US11299518B2, “Fusion respiratory syncytial virus inhibitors and use thereof” (priority 2016, dated 2022).
Values joined by “and” are separate entries in the source; they are usually repeats but may differ in a detail not shown here. Equal values may be shown once. Numbered stars: 1 amine (or outer) side, 2 acyl side, 3 side chain; on linkers, the order of the positions; unused ones are H or OH. Bridge positions count the residues as written; N and C are the ends. Square brackets hold non-standard residues; d marks the D form. Peptide text beside a SMILES is read from it. Nle(6-ylidene) = O=C([C@H](CCCC=[*:3])N[*:1])[*:2]; Gly(cPent) = N[C@H](C(=O)O)C1CCCC1; tBuAla = CC(C)(C)C[C@H](N)C(=O)O; Chg = N[C@H](C(=O)O)C1CCCCC1; R5 = C=CCCC[C@@](C)(N)C(=O)O; S5 = C=CCCC[C@](C)(N)C(=O)O

Columns and labels:
circular dichroism = conditions: 10 mM phosphate; pH 7.5; 25 °C; 50 uM
[1] = CD spectroscopy, percentage of helicity; type: physicochemical; conditions: CD at 222 nm, 10 mM phosphate buffer pH 7.5, 50 μM peptide, 25° C.
Method: The secondary structure of the peptides was then characterized by circular dichroism (DC) as described below.
The circular dichroism spectra were acquired on a Jasco J-810 and on a Chirascan spectropolarimeter. The samples were prepared in 10 mM phosphate buffer, pH 7.5, at a peptide concentration of 50 μM. Data were recorded at 25° C. by stepscan from 180 nm to 260 nm in a 0.1 cm pathlength quartz cell using 0.2 nm wavelength increments, 1 nm bandwidth and a response time of 0.5 sec. Each spectrum was an average of three measurements and was subtracted from buffer baseline. The data were converted to per residue molar ellipticity units [θ] (deg·cm2·dmol−1·residue−1) and smoothed using the Igor software. The percentage of helicity was calculated as it follows:
[formula] whereby CD222=molar ellipticity at 222 nm in [mdeg], N=number of amino acids in the peptide and C=peptide molar concentration [mol/l].

Row | Molecule | helicity (circular dichroism) [%] | % helicity [1]
1 | CC[C@H](C)[C@H](NC(=O)[C@H](CCCCN)NC(=O)[C@H](CCC(=O)O)NC(C)=O)C(=O)N[C@@H](CC(N)=O)C(=O)N[C@@H](CCC(N)=O)C(=O)N[C@@H](CO)C(=O)N[C@@H](CC(C)C)C(=O)N[C@H]1CCCC=CCCC[C@@H](C(=O)N[C@@H](CO)C(=O)N[C@@H](CC(=O)O)C(=O)N[C@H]2CCCC=CCCC[C@@H](C(=O)N[C@H](C(N)=O)C(C)C)NC(=O)[C@H](Cc3c[nH]cn3)NC(=O)[C@H](CC(C)C)NC(=O)[C@H](CC(C)C)NC2=O)NC(=O)[C@H](CCCNC(=N)N)NC(=O)[C@H]([C@@H](C)CC)NC(=O)[C@H](Cc2ccccc2)NC1=O (Ac-EKINQSL[Nle(6-ylidene)]FIR[Nle(6-ylidene)]SD[Nle(6-ylidene)]LLH[Nle(6-ylidene)]V-NH2; staple 8-12, 15-19) | 46 | 
2 | CC[C@H](C)[C@@H]1NC(=O)[C@H](Cc2ccccc2)NC(=O)[C@@H](NC(=O)[C@H](CC(C)C)NC(=O)[C@H](CO)NC(=O)[C@@H]2CCCC=CCCC[C@@](C)(NC(=O)[C@H](CCC(=O)O)NC(C)=O)C(=O)N[C@@H]([C@@H](C)CC)C(=O)N[C@@H](CC(N)=O)C(=O)N2)CCCC=CCCC[C@@H](C(=O)N[C@@H](CO)C(=O)N[C@@H](CC(=O)O)C(=O)N[C@@H](CCC(=O)O)C(=O)N[C@@H](CC(C)C)C(=O)N[C@@H](CC(C)C)C(=O)N[C@@H](Cc2c[nH]cn2)C(=O)N[C@@H](CC(N)=O)C(=O)N[C@H](C(N)=O)C(C)C)NC(=O)[C@H](CCCNC(=N)N)NC1=O [Peptide 4ca2] (Ac-E[R5]IN[Nle(6-ylidene)]SL[Nle(6-ylidene)]FIR[Nle(6-ylidene)]SDELLHNV-NH2; staple 2-5, 8-12) | 58.1 | 58.1%
3 | CC[C@H](C)[C@@H]1NC(=O)[C@H](Cc2ccccc2)NC(=O)[C@@](C)(NC(=O)[C@H](CC(C)C)NC(=O)[C@H](CO)NC(=O)[C@]2(C)CCCC=CCCC[C@@](C)(NC(C)=O)C(=O)N[C@@H]([C@@H](C)CC)C(=O)N[C@@H](CC(N)=O)C(=O)N2)CCCC=CCCC[C@@](C)(C(=O)N[C@@H](CO)C(=O)N[C@@H](CC(=O)O)C(=O)N[C@@H](CCC(=O)O)C(=O)N[C@@H](CC(C)C)C(=O)N[C@@H](CC(C)C)C(N)=O)NC(=O)[C@H](CCCNC(=N)N)NC1=O [Peptide 4ca16, X498 IN X501 SL X504 FIR X508 SDELL] (Ac-[R5]IN[S5]SL[S5]FIR[S5]SDELL-NH2; staple 1-4, 7-11) |  | >100%
4 | CC[C@H](C)[C@@H]1NC(=O)[C@H](Cc2ccccc2)NC(=O)[C@@](C)(NC(=O)[C@H](CC(C)C)NC(=O)[C@H](CO)NC(=O)[C@]2(C)CCCC=CCCC[C@@](C)(NC(=O)[C@H](CCC(=O)O)NC(C)=O)C(=O)N[C@@H]([C@@H](C)CC)C(=O)N[C@@H](CC(N)=O)C(=O)N2)CCCC=CCCC[C@@](C)(C(=O)N[C@@H](CO)C(=O)N[C@@H](CC(=O)O)C(=O)N[C@@H](CCC(=O)O)C(=O)N[C@@H](CC(C)C)C(=O)N[C@@H](CC(C)C)C(=O)N[C@@H](Cc2c[nH]cn2)C(N)=O)NC(=O)[C@H](CCCNC(=N)N)NC1=O [Peptide 4ca18, E Xaa2 IN Xaa5 SL Xaa8 FIR Xaa12 SDELLH] (Ac-E[R5]IN[S5]SL[S5]FIR[S5]SDELLH-NH2; staple 2-5, 8-12) | 43 | 43%
5 | CC[C@H](C)[C@@H]1NC(=O)[C@H](Cc2ccccc2)NC(=O)[C@@](C)(NC(=O)[C@H](CC(C)(C)C)NC(=O)[C@H](CO)NC(=O)[C@]2(C)CCCC=CCCC[C@@](C)(NC(=O)[C@H](CCC(=O)O)NC(C)=O)C(=O)N[C@@H]([C@@H](C)CC)C(=O)N[C@@H](CC(N)=O)C(=O)N2)CCCC=CCCC[C@@](C)(C(=O)N[C@@H](CO)C(=O)N[C@@H](CC(=O)O)C(=O)N[C@@H](CCC(=O)O)C(=O)N[C@@H](CC(C)C)C(=O)N[C@@H](CC(C)C)C(=O)N[C@@H](Cc2c[nH]cn2)C(=O)N[C@@H](CC(N)=O)C(=O)N[C@H](C(N)=O)C(C)C)NC(=O)[C@H](CCCNC(=N)N)NC1=O [Peptide 4ca-var1] (Ac-E[R5]IN[S5]S[tBuAla][S5]FIR[S5]SDELLHNV-NH2; staple 2-5, 8-12) | 89.3 | 89.3%
6 | CC[C@H](C)[C@@H]1NC(=O)[C@H](Cc2ccccc2)NC(=O)[C@@](C)(NC(=O)[C@@H](NC(=O)[C@H](CO)NC(=O)[C@]2(C)CCCC=CCCC[C@@](C)(NC(=O)[C@H](CCC(=O)O)NC(C)=O)C(=O)N[C@@H]([C@@H](C)CC)C(=O)N[C@@H](CC(N)=O)C(=O)N2)C2CCCC2)CCCC=CCCC[C@@](C)(C(=O)N[C@@H](CO)C(=O)N[C@@H](CC(=O)O)C(=O)N[C@@H](CCC(=O)O)C(=O)N[C@@H](CC(C)C)C(=O)N[C@@H](CC(C)C)C(=O)N[C@@H](Cc2c[nH]cn2)C(=O)N[C@@H](CC(N)=O)C(=O)N[C@H](C(N)=O)C(C)C)NC(=O)[C@H](CCCNC(=N)N)NC1=O [Peptide 4ca-var2] (Ac-E[R5]IN[S5]S[Gly(cPent)][S5]FIR[S5]SDELLHNV-NH2; staple 2-5, 8-12) | 90.3 | 90.3%
7 | CC[C@H](C)[C@@H]1NC(=O)[C@H](Cc2ccccc2)NC(=O)[C@@](C)(NC(=O)[C@@H](NC(=O)[C@H](CO)NC(=O)[C@]2(C)CCCC=CCCC[C@@](C)(NC(=O)[C@H](CCC(=O)O)NC(C)=O)C(=O)N[C@@H]([C@@H](C)CC)C(=O)N[C@@H](CC(N)=O)C(=O)N2)C2CCCCC2)CCCC=CCCC[C@@](C)(C(=O)N[C@@H](CO)C(=O)N[C@@H](CC(=O)O)C(=O)N[C@@H](CCC(=O)O)C(=O)N[C@@H](CC(C)C)C(=O)N[C@@H](CC(C)C)C(=O)N[C@@H](Cc2c[nH]cn2)C(=O)N[C@@H](CC(N)=O)C(=O)N[C@H](C(N)=O)C(C)C)NC(=O)[C@H](CCCNC(=N)N)NC1=O [Peptide 4ca-var3] (Ac-E[R5]IN[S5]S[Chg][S5]FIR[S5]SDELLHNV-NH2; staple 2-5, 8-12) | 91.4 | 91.4%
8 | CC[C@H](C)[C@@H]1NC(=O)[C@H](Cc2ccccc2)NC(=O)[C@@](C)(NC(=O)[C@H](CC(C)C)NC(=O)[C@H](CO)NC(=O)[C@]2(C)CCCC=CCCC[C@@](C)(NC(=O)[C@H](CCC(=O)O)NC(C)=O)C(=O)N[C@@H]([C@@H](C)CC)C(=O)N[C@@H](CCCCN)C(=O)N2)CCCC=CCCC[C@@](C)(C(=O)N[C@@H](CO)C(=O)N[C@@H](CC(=O)O)C(=O)N[C@@H](CCC(=O)O)C(=O)N[C@@H](CC(C)(C)C)C(=O)N[C@@H](CC(C)C)C(=O)N[C@@H](Cc2c[nH]cn2)C(=O)N[C@@H](CC(N)=O)C(=O)N[C@H](C(N)=O)C(C)C)NC(=O)[C@H](CCCNC(=N)N)NC1=O [Peptide 4ca-var5, E Xaa2 IK Xaa5 SL Xaa8 FIR Xaa12 SDE Xaa16LHNV] (Ac-E[R5]IK[S5]SL[S5]FIR[S5]SDE[tBuAla]LHNV-NH2; staple 2-5, 8-12) | 82.3 | 82.3%
9 | Ac-FDASISQVNEKINQSLAFIRKSDELLHNVNAGKST-NH2 (N-terminus and C-terminus assumed) [Peptide T118, reference compound] |  | 23.4%
10 | EFPS X486 EFD X490 SI X493 QVN X497 KIN (EFPSXEFDXSIXQVNXKIN; not fully specified; (S)-2-(4-pentenyl)alanine residues, likely stapled; comparative peptide 1eg; (1)..(1) N-term acetylated; (5)..(5) (S)-2-(4-pentenyl)alanine; (9)..(9) (S)-2-(4-pentenyl)alanine; (12)..(12) (S)-2-(4-pentenyl)alanine; (16)..(16) (S)-2-(4-pentenyl)alanine; (19)..(19) C-term amidated) [comparative peptide; X486, X490, X493 and X497 are (S)-2-(4-pentenyl)alanine, reference compound] |  | 35.3%
11 | EKA Xaa4 QSL Xaa8 FI Xaa11 KSD Xaa15 LLHNV (Ac-EKA[S5]QSL[S5]FI[S5]KSD[S5]LLHNV-NH2; staple 11-15, 4-8 (inferred)) [Peptide V4bb499] |  | 24%
12 | EKI Xaa4 A SL Xaa8 FI Xaa11 KSD Xaa15 LLHNV (Ac-EKI[S5]ASL[S5]FI[S5]KSD[S5]LLHNV-NH2; staple 11-15, 4-8 (inferred)) [Peptide V4bb501] |  | 12%
13 | EKI Xaa4 Q A L Xaa8 FI Xaa11 KSD Xaa15 LLHNV (Ac-EKI[S5]QAL[S5]FI[S5]KSD[S5]LLHNV-NH2; staple 11-15, 4-8 (inferred)) [Peptide V4bb502] |  | 15%
14 | EKINQSL Xaa8 FIR Xaa12 SD Xaa15 LLH Xaa19 V (Ac-EKINQSL[(S)‑2‑(4-pentenyl)glycine]FIR[(S)‑2‑(4-pentenyl)glycine]SD[(S)‑2‑(4-pentenyl)glycine]LLH[(S)‑2‑(4-pentenyl)glycine]V-NH2; staple 8-12, 15-19 (inferred); not fully specified; printed as EKINQSL Xaa8 FIR Xaa12 SD Xaa15 LLH Xaa19 V) [Peptide 4a2, Xaa8, Xaa12, Xaa15 and Xaa19 are (S)-2-(4-pentenyl)glycine; Formula (C7)] |  | 46%
15 | EQSLAFIRKSDELLHNV (comparative peptide 3) [non-stapled native comparative peptide, reference compound] |  | 5.9% and 6.6%
